Measured values taken from article PMC4220118, “Exploring nicotinamide cofactor promiscuity in NAD(P)H-dependent flavin containing monooxygenases (FMOs) using natural variation within the phosphate binding loop. Structure and activity of FMOs from Cellvibrio sp. BR and Pseudomonas stutzeri NF13” (Journal of Molecular Catalysis. B, Enzymatic, 2014).

Experiments:
[1] = biological target: T1, CFMO (Cellvibrio sp. BR, UniProt I3IEE4); experiment: X-ray crystal structure, […] Å; format: binding; conditions: oxidised FAD at domain interface; co-purified; non-cleaved His-tagged protein
T1 construct: gene O59_000450; 361 aa; codon-optimised gene in pET-YSBL-LIC-3C, N-terminal 3C-cleavable His6 tag (crystals: non-cleaved protein), E. coli BL21(DE3); dimer
T1 sequence (I3IEE4 1-361): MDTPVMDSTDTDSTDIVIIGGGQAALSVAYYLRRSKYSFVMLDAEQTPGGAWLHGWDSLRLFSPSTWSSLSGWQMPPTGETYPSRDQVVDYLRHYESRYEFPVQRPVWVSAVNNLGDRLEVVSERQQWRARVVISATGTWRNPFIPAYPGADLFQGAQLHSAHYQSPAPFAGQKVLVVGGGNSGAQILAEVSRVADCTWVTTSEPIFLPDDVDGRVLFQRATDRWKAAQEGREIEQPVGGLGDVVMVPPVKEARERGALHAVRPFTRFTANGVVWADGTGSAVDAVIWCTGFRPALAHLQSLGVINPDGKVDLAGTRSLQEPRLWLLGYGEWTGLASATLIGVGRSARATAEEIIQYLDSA

[2] = biological target: T2, PSFMO (Stutzerimonas stutzeri, UniProt M2V3J0); experiment: X-ray crystal structure, […] Å; format: binding; conditions: oxidised FAD; co-purified; tag-cleaved protein
T2 construct: gene B381_09411; 358 aa; codon-optimised gene in pET-YSBL-LIC-3C, N-terminal 3C-cleavable His6 tag (crystals: tag cleaved, linker Gly-2 Pro-1 Ala0 seen), E. coli BL21(DE3)
T2 sequence (M2V3J0 1-358): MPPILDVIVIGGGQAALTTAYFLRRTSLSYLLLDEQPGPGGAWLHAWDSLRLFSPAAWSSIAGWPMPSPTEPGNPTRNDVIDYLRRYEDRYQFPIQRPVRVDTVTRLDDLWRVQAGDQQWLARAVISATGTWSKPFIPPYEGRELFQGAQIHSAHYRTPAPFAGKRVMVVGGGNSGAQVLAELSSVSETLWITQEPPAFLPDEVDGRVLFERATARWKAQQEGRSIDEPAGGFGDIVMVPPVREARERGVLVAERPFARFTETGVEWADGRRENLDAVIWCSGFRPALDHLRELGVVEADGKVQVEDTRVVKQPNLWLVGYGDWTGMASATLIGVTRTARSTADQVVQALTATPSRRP

[3] = substrate: NC(=O)C1=CN([C@@H]2O[C@H](COP(=O)(O)OP(=O)(O)OC[C@H]3O[C@@H](n4cnc5c(N)ncnc54)[C@H](O)[C@@H]3O)[C@@H](O)[C@H]2O)C=CC1; experiment: purified protein; format: biochemical, Cellvibrio sp. BR; conditions: Tris-HCl pH 7.5, 3.9 nmol enzyme in 1 mL, NADH 10-100 μM
[4] = substrate: NC(=O)C1=CN([C@@H]2O[C@H](COP(=O)(O)OP(=O)(O)OC[C@H]3O[C@@H](n4cnc5c(N)ncnc54)[C@H](OP(=O)(O)O)[C@@H]3O)[C@@H](O)[C@H]2O)C=CC1; experiment: purified protein; format: biochemical, Cellvibrio sp. BR; conditions: Tris-HCl pH 7.5, 3.9 nmol enzyme in 1 mL, NADPH 10-100 μM
[5] = substrate: NC(=O)C1=CN([C@@H]2O[C@H](COP(=O)(O)OP(=O)(O)OC[C@H]3O[C@@H](n4cnc5c(N)ncnc54)[C@H](O)[C@@H]3O)[C@@H](O)[C@H]2O)C=CC1; experiment: purified protein; format: biochemical, Stutzerimonas stutzeri; conditions: Tris-HCl pH 7.5, 3.9 nmol enzyme in 1 mL, NADH 10-100 μM
[6] = substrate: NC(=O)C1=CN([C@@H]2O[C@H](COP(=O)(O)OP(=O)(O)OC[C@H]3O[C@@H](n4cnc5c(N)ncnc54)[C@H](OP(=O)(O)O)[C@@H]3O)[C@@H](O)[C@H]2O)C=CC1; experiment: purified protein; format: biochemical, Stutzerimonas stutzeri; conditions: Tris-HCl pH 7.5, 3.9 nmol enzyme in 1 mL, NADPH 10-100 μM
[7] = biological target: the molecule itself; experiment: SEC; size-exclusion studies of PSFMO (not shown)

Cc1cc2nc3c(=O)[nH]c(=O)nc-3n(C[C@H](O)[C@H](O)[C@H](O)COP(=O)(O)OP(=O)(O)OC[C@H]3O[C@@H](n4cnc5c(N)ncnc54)[C@H](O)[C@@H]3O)c2cc1C [FAD]
X-ray crystal structure, 2.39 Å [1]: This was successfully modelled and refined as FAD in the flat, oxidised form
X-ray crystal structure, 1.83 Å [2]: FAD was again clearly visible in the omit map after building and refinement

B1: CFMO (Cellvibrio sp. BR) (protein)
chain: T1 sequence (I3IEE4 1-361)
notes: 361 aa; codon-optimised gene in pET-YSBL-LIC-3C, N-terminal 3C-cleavable His6 tag (crystals: non-cleaved protein), E. coli BL21(DE3); dimer
Km [3]: 3 ± 1 µM
kcat [3]: 0.02 s⁻¹
kcat/Km [3]: 6670 M⁻¹ s⁻¹
Km [4]: 5 ± 1 µM
kcat [4]: 0.02 s⁻¹
kcat/Km [4]: 4000 M⁻¹ s⁻¹

B2: Flavin-containing monooxygenase from Pseudomonas stutzeri NF13 (PSFMO), as used in size-exclusion studies (enzyme, UniProt M2V3J0 1-358, looked up)
chain: T2 sequence (M2V3J0 1-358)
notes: PSFMO, putative FMO from Pseudomonas stutzeri NF13, Uniprot M2V3J0, 358 amino acids; synthetic gene amplified with primers from the ATG start codon to the stop codon; Same construct as m2
Km [5]: 16 ± 2 µM
kcat [5]: 0.03 s⁻¹
kcat/Km [5]: 1880 M⁻¹ s⁻¹
Km [6]: 17 ± 2.0 µM
kcat [6]: 0.04 s⁻¹
kcat/Km [6]: 2350 M⁻¹ s⁻¹
stoichiometry N [7]: 2
